Assays:
[1] = biological target: Staphylococcus aureus PemK toxin, wild type (Staphylococcus aureus CH-91 (plasmid pCH91)); experiment: SEC-MALS
[2] = biological target: T1, PemK WT (Staphylococcus aureus CH-91 (plasmid …, UniProt L7PFJ6 1-112)); experiment: NMR titration
T1 sequence: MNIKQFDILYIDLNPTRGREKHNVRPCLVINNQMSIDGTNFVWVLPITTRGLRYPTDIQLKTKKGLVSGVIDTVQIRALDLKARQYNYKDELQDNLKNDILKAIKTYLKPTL

Molecule | stoichiometry N [1] | binding result [2]
Staphylococcus aureus PemK toxin, wild type (enzyme) | 2 | –
UUUAUUAA (ssRNA, deoxyuridine at position 3 (dU3), rest RNA) [ssRNA UUdUAUUAA] | – | binds
